Test results reported in patent CN117567612A (CHINA RESOURCES BIOMEDICAL CO LTD, dated 2024).

How the values were obtained:
[1] = target: T1, CLDN18.2; test: kinetics, method not stated
T1 construct: For the EC50 it stood on overexpressing cells; also called claudin18.2; CLDN18.2过表达细胞

[2] = target: T1, CLDN18.2; test: flow cytometry on CLDN18.2-overexpressing cells, MFI fitted in GraphPad Prism

B1: IMAB362 (antibody, V domains shown)
VH: QVQLQQPGAELVRPGASVKLSCKASGYTFTSYWINWVKQRPGQGLEWIGNIYPSDSYTNYNQKFKDKATLTVDKSSSTAYMQLSSPTSEDSAVYYCTRSWRGNSFDYWGQGTTLTVSS
VL: DIVMTQSPSSLTVTAGEKVTMSCKSSQSLLNSGNQKNYLTWYQQKPGQPPKLLIYWASTRESGVPDRFTGSGSGTDFTLTISSVQAEDLAVYYCQNDYSYPFTFGSGTKLEIKR
Question: Which results are given for B1?
Answer: Kd [1]: 4.17 nM; koff [1]: 0.00158 s⁻¹; kon [1]: 378000 M⁻¹ s⁻¹; EC50 [2]: 1.75 µg/mL

B2: CLDN-BC-P1022-hH1 (antibody, V domains shown)
VH: QVQLVQSGGGLVQPGGSLRLSCAASGFTFSSYEMNWVRQAPGKGLEWVAYITGSGRTMYYADSVKGRITISRDNAKNSLYLQMNSLRAEDTAVYYCARYWNYAGGMDVWGQGTLVTVSS
VL: DIQMTQSPSSVSASVGDRVTITCRASQGISSWLAWYQQKPGKAPKLLIYAASSLQSGVPSRFSGSGSGTDFTLTISSLQPEDFATYYCQQANSFPLTFGGGTKVEIK
notes: detected with anti-human IgG Fc); P1022 is the only antibody of the application; also called CLN-P1022-hH1; 全人源抗体P1022
Question: Which EC50 [2] does the source give for B2 here?
Answer: 0.12 µg/mL
